Data: patent US7371551B1, “Feedback-resistant homoserine transsuccinylases” (priority 2002, dated 2008)
Positions count from the first letter of the chain named.

B1: pSLmetAH: MetA variant with His instead of Asp at position 101 (protein, UniProt P07623 2-309, looked up, variant D101H)
Homoserine …: PIRVPDELPAVNFLREENVFVMTTSRASGQEIRPLKVLILNLMPKKIETENQFLRLLSNSPLQVDIQLLRIDSRESRNTPAEHLNNFYCNFEDIQDQNFHGLIVTGAPLGLVEFNDVAYWPQIKQVLEWSKDHVTSTLFVCWAVQAALNILYGIPKQTRTEKLSGVYEHHILHPHALLTRGFDDSFLAPHSRYADFPAALIRDYTDLEILAETEEGDAYLFASKDKRIAFVTGHPEYDAQTLAQEFFRDVEAGLDPDVPYNYFPHNDPQNTPRASWRSHGNLLFTNWLNYYVYQITPYDLRHMNPTLD
B2: pSLmetAC: MetA variant with Cys instead of Asp at position 101 (protein, UniProt P07623 2-309, looked up, variant D101C)
Homoserine …: B1 Homoserine … with H100C
B3: pSLmetAS: MetA variant with Ser instead of Asp at position 101 (protein, UniProt P07623 2-309, looked up, variant D101S)
Homoserine …: B1 Homoserine … with H100S
B4: pSLmetAY: MetA variant with Tyr instead of Asp at position 101 (protein, UniProt P07623 2-309, looked up, variant D101Y)
Homoserine …: B1 Homoserine … with H100Y
B5: pSLmetAA: MetA variant with Ala instead of Asp at position 101 (protein, UniProt P07623 2-309, looked up, variant D101A)
Homoserine …: B1 Homoserine … with H100A
B6: pKP413GAP: E. coli wild-type homoserine transsuccinylase (MetA; Asp101, Tyr294) expressed from starting plasmid pKP413GAP (protein, UniProt P07623 2-309, looked up)
Homoserine …: B1 Homoserine … with H100D
B7: pKP446: MetA variant with Cys instead of Tyr at position 294 (protein, UniProt P07623 2-309, looked up, variant Y294C)
Homoserine …: B1 Homoserine … with H100D, Y293C
B8: pSLmetA*L: MetA variant with Leu instead of Tyr at position 294 (protein, UniProt P07623 2-309, looked up, variant Y294L)
Homoserine …: B1 Homoserine … with H100D, Y293L
B9: pSLmetA*A: MetA variant with Ala instead of Tyr at position 294 (protein, UniProt P07623 2-309, looked up, variant Y294A)
Homoserine …: B1 Homoserine … with H100D, Y293A
B10: pSLmetA*P: MetA variant with Pro instead of Tyr at position 294 (protein, UniProt P07623 2-309, looked up, variant Y294P)
Homoserine …: B1 Homoserine … with H100D, Y293P
B11: pSLmetA*Q: MetA variant with Gln instead of Tyr at position 294 (protein, UniProt P07623 2-309, looked up, variant Y294Q)
Homoserine …: B1 Homoserine … with H100D, Y293Q
B12: pSLmetA*K: MetA variant with Lys instead of Tyr at position 294 (protein, UniProt P07623 2-309, looked up, variant Y294K)
Homoserine …: B1 Homoserine … with H100D, Y293K
B13: pSLmetA*0: MetA variant in which amino acid 294 is deleted (protein, UniProt P07623 2-309, looked up, variant Y294*)
Homoserine …: PIRVPDELPAVNFLREENVFVMTTSRASGQEIRPLKVLILNLMPKKIETENQFLRLLSNSPLQVDIQLLRIDSRESRNTPAEHLNNFYCNFEDIQDQNFDGLIVTGAPLGLVEFNDVAYWPQIKQVLEWSKDHVTSTLFVCWAVQAALNILYGIPKQTRTEKLSGVYEHHILHPHALLTRGFDDSFLAPHSRYADFPAALIRDYTDLEILAETEEGDAYLFASKDKRIAFVTGHPEYDAQTLAQEFFRDVEAGLDPDVPYNYFPHNDPQNTPRASWRSHGNLLFTNWLNYYVQITPYDLRHMNPTLD
B14: pSLmetAN: MetA variant with Asn instead of Asp at position 101 (protein, UniProt P07623 2-309, looked up, variant D101N)
Homoserine …: B1 Homoserine … with H100N

test system: homoserine transsuccinylase; experiment: Homoserine transsuccinylase enzyme test using cell extracts, decrease in extinction at 232 nm, with and without L-methionine; format: biochemical, E. coli; settings: 1 mM L-methionine; activity in the absence of L-methionine corresponds to 100%
Description: Any method which enables the activity of the enzyme to be determined in the presence of L-methionine or SAM can be used for determining the sensitivity of the homoserine transsuccinylase to L-methionine and/or SAM. For example, the homoserine transsuccinylase activity can be determined by following the method described by Kredich and Tomkins for determining the activity of serine acetyltransferases (Kredich N. M. and Tomkins G. M., J. Biol. Chem. 241, 4955-4965 (1966)). The enzyme activity is measured in an assay sample which contains homoserine and succinyl-CoA. The reaction is started by adding enzyme and monitored in a spectrophotometer by way of the decrease in the extinction at 232 nm which results from cleavage of the thioester bond in the succinyl-coenzyme A. The described test is suitable for determining the sensitivity of the homoserine transsuccinylases to methionine. The inhibition of homoserine transsuccinylase activity is tested in the presence of different concentrations of L-methionine in the reaction mixture.
The activity, and the influence of L-methionine on the activity, of the different homoserine transsuccinylases were determined by means of an enzyme test using cell extracts in which the respective proteins had been produced. For this, the corresponding plasmids, encoding altered homoserine transsuccinylases, were introduced, by transformation, into the E. coli strain W3110 (ATCC 27325) using methods known to the skilled person. The transformation mixture was spread on LB-tetracycline agar plates (10 g of tryptone/l, 5 g of yeast extract/l, 5 g of NaCl/l, 15 g of agar/l and 15 mg of tetracycline/l) and incubated at 37° C. overnight. The resulting transformants were grown in SM1 medium (for 1 l of medium: CaCl2×2H2O, 0.0147 g, MgSO4×7H2O, 0.3 g, Na2MoO4×2H2O, 0.15 mg, H3BO3, 2.5 mg, CoCl2×6H2O, 0.7 mg, CuSO4×5H2O, 0.25 mg, MnCl2×4H2O, 1.6 mg, ZnSO4×7H2O, 0.3 mg, KH2PO4, 3.0 g, K2HPO4, 12.0 g, (NH4)2SO4, 5 g, NaCl, 0.6 g, FeSO4×7H2O, 0.002 g, Na3-citrate×2H2O, 1 g, glucose, 5 g, tryptone, 1 g, yeast extract, 0.5 g), centrifuged down at an absorption of approx. 0.8 at 600 nm, washed in 50 mM Tris pH 7.5, and centrifuged down once again. The cells were resuspended in 50 mM Tris/Cl, pH 7.5, 2 mM dithiothreitol, 0.5 mM phenylmethylsulfonyl fluoride and disrupted in a French press. The supernatant from a further centrifugation was used as the enzyme extract in the test. The enzyme activity was determined, in a mixture containing 50 mM Tris/Cl, pH 7.6, 1 mM homoserine and 0.1 mM succinyl-CoA, by photometrically quantifying, by means of the decrease in the extinction at 232 nm, the coenzyme A formed in the reaction, following the method described by Kredich and Tomkins for determining the activity of serine acetyltransferases (Kredich N. M. and Tomkins G. M., J. Biol. Chem. 241, 4955-4965 (1966)). The effect of added L-methionine on the activity was determined and the inhibitability was quantified as a Ki value. The Ki which is determined is the concentration of L-methionine at which the activity of the homoserine transsuccinylase is only 50% of its activity in the absence of L-methionine.

Molecule	Activity (%) in the presence of 1 mM L-methionine [%]
B1	90
B2	92
B3	89
B4	93
B5	96

same assay, conditions: cell extract of E. coli W3110 transformants; 1 mM homoserine, 0.1 mM succinyl-CoA, 50 mM Tris/Cl pH 7.6

Molecule	Activity (U/mg)
B6	0.155
B7	0.133
B8	0.070
B9	0.063
B10	0.020
B11	0.065
B12	0.048
B13	0.085
B14	0.050
B1	0.045
B2	0.084
B3	0.027
B4	0.094
B5	0.031

same assay, conditions: concentration of L-methionine at which activity is only 50% of activity in its absence

Molecule	Ki [mM]
B1	12
B2	5
B3	7.5
B4	10
B5	6

test system: homoserine transsuccinylase; experiment: Homoserine transsuccinylase activity test (Lee et al.), 5,5'-dithiobis(2-nitrobenzoic acid), absorption at 412 nm, with and without SAM; format: biochemical, E. coli; settings: 1 mM SAM; activity in the absence of SAM corresponds to 100%
Experimental: In order to determine the sensitivity of the activity of the different homoserine transsuccinylases to SAM, it is possible, for example, to carry out an activity test as described in Lee L. W. et al., J. Biol. Chem. 241, 5479-5480 (1966). In this method, the enzyme extract is incubated with homoserine and succinyl-CoA. After various times, a part of the test assay sample is stopped by adding it to a mixture of ethanol, water, and 5,5′-dithiobis(2-nitrobenzoic acid). The absorption is determined photometrically at 412 nm. The described test is suitable, for example, for determining the sensitivity of the homoserine transsuccinylases to SAM.
The influence of SAM on the activities of the different homoserine transsuccinylases was determined by quantifying the activity in the presence of different concentrations of SAM (Cl salt, Sigma). The cell extracts were grown and prepared as described in Example 3. The activity test was carried out as described in Lee L. W. et al., J. Biol. Chem. 241, 5479-5480 (1966), with the enzyme extract being incubated with 50 mM potassium phosphate buffer, pH 7.5, 3 mM homoserine and 0.3 mM succinyl-CoA. After various times, 100 μl volumes of test mixture were stopped by adding them in each case to a mixture of 400 μl of ethanol, 400 μl of water and 100 μl of 10 mM 5,5′-dithiobis(2-nitrobenzoic acid). After the resulting mixture had been incubated at room temperature for 5 minutes, the absorption was determined photometrically at 412 nm. After the protein concentration had been determined, the enzyme activity was calculated using the extinction coefficient. The Ki was determined as a measure of the ability of SAM to inhibit the activity.

Molecule	Activity (%) in the presence of 1 mM SAM [%]
B1	93
B2	91
B4	95
B5	90

same assay, conditions: SAM (Cl salt, Sigma) as inhibitor

Molecule	Ki [mM]
B1	16
B2	7
B3	10
B4	14
B5	8

same assay, conditions: cell extract; 3 mM homoserine, 0.3 mM succinyl-CoA, 50 mM potassium phosphate buffer pH 7.5

Molecule	Activity (U/mg)
B6	0.62
B7	0.49
B8	0.29
B9	0.26
B10	0.15
B11	0.21
B12	0.14
B13	0.33
B14	0.30
B1	0.27
B2	0.51
B3	0.15
B4	0.61
B5	0.20
